Data published in publication PMC10412585, “High-throughput characterization of HLA-E-presented CD94/NKG2x ligands reveals peptides which modulate NK cell activation” (Nature Communications, 2023).

B1: CD94/NKG2C single-chain fusion protein (human NKG2C ectodomain - GGSGGS - human CD94 ectodomain), produced in Hi5 cells for SPR (receptor)
chain: not shown
notes: also called CD94/NKG2x
B2: CD94/NKG2A single-chain fusion protein (human NKG2A ectodomain - GGSGGS - human CD94 ectodomain), produced in Hi5 cells for SPR (receptor)
chain: not shown
notes: also called CD94/NKG2x

What was measured:
[1] = molecular target: … peptide HLA-E single chain trimer (soluble, biotinylated) (human, biotin (AviTag)); assay: SPR; conditions: both partners purified
[2] = molecular target: WN peptide (…) HLA-E single chain trimer (soluble, biotinylated) (human, biotin (AviTag)); assay: SPR; steady state, Biacore T200, biotinylated pMHC SCT immobilised at about 400 RU on a Series S SA chip, CD94/NKG2x as analyte 0.1-102.4 μM, 10 μL/min, 25 °C, HBS-EP+; reference HLA-DR401; approximate KD by Biacore software; conditions: both partners purified

Kd [1]	Kd [2]	Binder
~21.4 µM	~17.4 µM	B1
~8.2 µM	~41.5 µM	B2
